Assay results: PMC9405206 (Biomedicines, 2022)

Target: T1, CD47, biotin-conjugated antigen (Homo sapiens, UniProt Q08722, biotin-conjugated)
T1 construct: CD47; Probably the extracellular domain (surmise); also called antigen CD47; source: bought: Sino Biological Inc
Assay: BLI; ForteBio Octet RED96; streptavidin-coated tips loaded with biotin-conjugated PD-L1 or CD47 (100 nM); antibodies or fusion proteins in solution at 25, 50, 75, 100, 125 and 150 nM; dissociation in PBS; 37 °C; global fit, KD = kd/ka
Conditions: both partners purified

Kd: 4.08 pM
koff: 3.99e-07 s⁻¹
kon: 97900 M⁻¹ s⁻¹
B1: anti-CD47 mAb (B6H12), positive control antibody made in-house (antibody, V domains shown)
VH: EVQLVESGGGLVQPGGSLRLSCAASGFTFSGYGMSWVRQAPGKGLEWVATITSGGTYTYYPDSVKGRFTISRDNAKNSLYLQMNSLRAEDTAVYYCARSLAGNAMDYWGQGTLVTVSS
VL: EIVLTQSPATLSLSPGERATLSCRASQTISDYLHWYQQKPGQAPRLLIKFASQSISGIPARFSGSGSGTDFTLTISSLEPEDFAVYYCQNGHGFPRTFGQGTKVEIK
notes: source: produced in-house from plasmids pUC57/B6H12-Lc and pUC57/B6H12-Hc
